Measurements taken from patent publication US20260265354A1 (JIANGSU MABWELL HEALTH PHARMACEUTICAL R AND D, published 2026).

T1: Nectin-like-2 (UniProt Q9BY67 45-374, limits assumed)
T1 construct: Bought recombinant protein; also called CADM1; IgSF4
T1 sequence (looked up): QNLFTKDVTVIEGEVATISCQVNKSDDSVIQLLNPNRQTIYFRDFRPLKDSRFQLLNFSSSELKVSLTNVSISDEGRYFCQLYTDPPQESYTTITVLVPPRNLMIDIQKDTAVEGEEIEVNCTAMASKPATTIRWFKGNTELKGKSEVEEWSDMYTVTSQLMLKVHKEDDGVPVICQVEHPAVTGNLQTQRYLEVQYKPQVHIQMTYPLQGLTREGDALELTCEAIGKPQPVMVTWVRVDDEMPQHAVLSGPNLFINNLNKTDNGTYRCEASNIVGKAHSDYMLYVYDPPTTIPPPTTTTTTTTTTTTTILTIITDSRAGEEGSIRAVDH

T2: Nectin-like-3 (UniProt Q8N3J6 25-367, limits assumed)
T2 construct: Bought recombinant protein; also called CADM2; IgSF4D
T2 sequence (looked up): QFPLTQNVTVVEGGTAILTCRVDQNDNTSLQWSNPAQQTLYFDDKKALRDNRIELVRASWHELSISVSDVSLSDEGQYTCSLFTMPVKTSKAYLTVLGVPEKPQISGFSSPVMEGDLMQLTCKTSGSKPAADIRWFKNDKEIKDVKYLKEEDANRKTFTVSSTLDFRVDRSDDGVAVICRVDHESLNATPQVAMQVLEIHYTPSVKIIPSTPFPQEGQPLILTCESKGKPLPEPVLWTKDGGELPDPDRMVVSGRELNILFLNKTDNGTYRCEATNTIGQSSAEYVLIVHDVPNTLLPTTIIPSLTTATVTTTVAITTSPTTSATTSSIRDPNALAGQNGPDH

T3: Nectin-like-4 (UniProt Q8NFZ8 21-324, limits assumed)
T3 construct: Bought recombinant protein; also called CADM4; IgSF4C
T3 sequence (looked up): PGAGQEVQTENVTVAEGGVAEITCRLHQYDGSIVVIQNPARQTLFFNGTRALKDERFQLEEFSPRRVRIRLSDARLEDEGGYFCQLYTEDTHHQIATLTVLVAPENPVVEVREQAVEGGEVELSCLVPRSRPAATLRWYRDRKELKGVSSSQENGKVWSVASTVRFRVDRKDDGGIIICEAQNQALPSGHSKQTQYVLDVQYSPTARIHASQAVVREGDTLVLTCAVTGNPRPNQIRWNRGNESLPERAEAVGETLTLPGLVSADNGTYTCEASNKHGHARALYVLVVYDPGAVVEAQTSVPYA

T4: recombinant human Nectin-4 protein (human, UniProt Q96NY8 32-349)
T4 construct: Prepared in-house (Jiangsu Mabwell) by transient transfection of CHO cells; also called PVRL-4; PRR-4
T4 sequence: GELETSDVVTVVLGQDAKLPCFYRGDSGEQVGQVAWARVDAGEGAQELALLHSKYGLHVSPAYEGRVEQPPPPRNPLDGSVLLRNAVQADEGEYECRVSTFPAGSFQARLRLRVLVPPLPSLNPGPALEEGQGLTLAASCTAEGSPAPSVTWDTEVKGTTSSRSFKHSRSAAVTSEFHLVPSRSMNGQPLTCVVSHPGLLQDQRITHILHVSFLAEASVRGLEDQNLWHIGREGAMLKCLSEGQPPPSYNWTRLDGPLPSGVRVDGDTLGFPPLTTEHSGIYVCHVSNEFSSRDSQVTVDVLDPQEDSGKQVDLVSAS

T5: Nectin-2 (UniProt Q92692 32-360, limits assumed)
T5 construct: Bought recombinant protein; also called CD112; PVRL-2
T5 sequence (looked up): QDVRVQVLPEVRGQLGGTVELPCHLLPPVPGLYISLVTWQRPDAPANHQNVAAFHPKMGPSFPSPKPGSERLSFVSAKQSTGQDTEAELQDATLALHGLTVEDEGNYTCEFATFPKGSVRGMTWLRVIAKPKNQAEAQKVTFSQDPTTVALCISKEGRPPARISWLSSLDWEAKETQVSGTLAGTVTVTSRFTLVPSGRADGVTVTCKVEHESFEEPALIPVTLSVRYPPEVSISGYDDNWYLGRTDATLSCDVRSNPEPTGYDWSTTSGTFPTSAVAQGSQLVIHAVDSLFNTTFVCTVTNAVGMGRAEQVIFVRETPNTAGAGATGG


Assays:
Nectin-like-2 [1] = target: T1, Nectin-like-2; test: ELISA, coated antigen, antibody at 100 ng/ml
Protocol: (§1) Coating: Nectin-1, Nectin-2, Nectin-3, Nectin-4, Nectin-like-1, Nectin-like-2, Nectin-like-3, Nectin-like-4, and Nectin-like-5 were diluted to 5 μg/ml in coating buffer (carbonate buffer, pH 9.6) respectively. A 96-well plate was coat with 100 μl per well and incubated overnight at 2-8° C.;
(§2) Sample loading: The plate was taken out, patted dry, and washed twice with 200 μl/well of PBST, then patted dry. The Nectin-4 antibodies prepared in Example 1 (antibody MM11, antibody R012, and antibody R036) were diluted with 1% BSA/PBST to concentrations of 10 μg/ml, 1 μg/ml, 100 ng/ml, and 10 ng/ml, respectively. 1% BSA/PBST solution for dilution was set as a blank control. 100 μl per well was added to the 96-well plate, and incubated at room temperature for 2 hours;
(§3) Reaction termination and plate reading: 100 μl/well of 1 mol/L H3PO4 was added to terminate the reaction and the plated was read. The absorbances of wells in the plate at 450 nm with 650 nm as reference wavelength were read and recorded as OD_{450 nm-650 nm}.

Nectin-like-3 [2] = target: T2, Nectin-like-3; test: ELISA, coated antigen, antibody at 100 ng/ml
Protocol: as §1, §2, §3

Nectin-3 [3] = target: T6, Nectin-3 (UniProt Q9NQS3 58-404, limits assumed); test: ELISA, coated antigen, antibody at 100 ng/ml
T6 construct: Bought recombinant protein; also called CD113; PVRL-3
T6 sequence (Q9NQS3 58-404 limits assumed): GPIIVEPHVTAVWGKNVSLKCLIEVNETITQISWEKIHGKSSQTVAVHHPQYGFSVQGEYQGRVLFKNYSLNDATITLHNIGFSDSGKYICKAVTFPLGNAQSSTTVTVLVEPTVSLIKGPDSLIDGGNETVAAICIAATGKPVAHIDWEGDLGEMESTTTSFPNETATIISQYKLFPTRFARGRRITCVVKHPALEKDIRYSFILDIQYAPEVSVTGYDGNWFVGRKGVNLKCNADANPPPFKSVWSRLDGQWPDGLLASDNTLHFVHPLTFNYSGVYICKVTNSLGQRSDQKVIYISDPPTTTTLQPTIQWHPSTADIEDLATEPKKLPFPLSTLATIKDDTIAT
Protocol: as §1, §2, §3

Nectin-like-4 = target: T3, Nectin-like-4; test: ELISA, coated antigen, antibody at 1000 ng/ml
Protocol: as §1, §2, §3

Nectin-like-2 [4] = target: T1, Nectin-like-2; test: ELISA, coated antigen, antibody at 1000 ng/ml
Protocol: as §1, §2, §3

[5] = target: T4, recombinant human Nectin-4 protein; test: ELISA, coated antigen, antibody at 1000 ng/ml
Protocol: as §1, §2, §3

Nectin-like-3 [6] = target: T2, Nectin-like-3; test: ELISA, coated antigen, antibody at 1000 ng/ml
Protocol: as §1, §2, §3

Nectin-3 [7] = target: T6, Nectin-3; test: ELISA, coated antigen, antibody at 1000 ng/ml
Protocol: as §1, §2, §3

Nectin-2 = target: T5, Nectin-2; test: ELISA, coated antigen, antibody at 1000 ng/ml
Protocol: as §1, §2, §3

Row | Binder | OD detection value (Nectin-like-2 [1]) [OD450 nm-650 nm] | OD detection value (Nectin-like-3 [2]) [OD450 nm-650 nm] | OD detection value (Nectin-3 [3]) [OD450 nm-650 nm] | OD detection value (Nectin-like-4) [OD450 nm-650 nm] | OD detection value (Nectin-like-2 [4]) [OD450 nm-650 nm] | OD detection value [5] [OD450 nm-650 nm] | OD detection value (Nectin-like-3 [6]) [OD450 nm-650 nm] | OD detection value (Nectin-3 [7]) [OD450 nm-650 nm] | OD detection value (Nectin-2) [OD450 nm-650 nm]
1 | Antibody R012 (antibody, V domains shown, Rabbit monoclonal antibody from phage display; also called Nectin-4 rabbit monoclonal antibody R012; rabbit antibody R012) VH: SKSVEESGGRLVTPGTPLTLTCTVSGFSLSTYAMSWVRQAPGKGLEYIGIISGRGTTYYASWLKGRFTISKTSTTVDLKITSPTTEDTATYFCARDAGISDVYTGYFNLWGQGTLVTVSS VL: QPVLAQLPSASAALGASAKLTCTLSSAHRTYTIAWYQQQQGEAPRYLMMLKSDGSYTKGTGVPDRFSGSSSGADRYLIISSVQAADEADYYCGADDSGGYVFGGGTQLTVTG | 0.008 | 0.008 | 0.007 | 0.007 | 0.007 | 1.56 | 0.008 | 0.007 | 0.007
2 | Antibody R036 (antibody, V domains shown, Rabbit monoclonal antibody from phage display; also called Nectin-4 rabbit monoclonal antibody R036; rabbit antibody R036) VH: SQSVEESGGRLVTPGTPLTLTCTVSGFSLSSYAMSWVRQAPGKGLEYIGIIGGRGTTYYAIWAKGRFTISKTSTTVDLKITSPTTEDTATYFCARDAGTTYVGTTYVATGYFNLWGQGTLVTVSS VL: QPVLTQPPSASAALGASAKLTCTLSSAHKTYTIAWYQQQQGEAPRYLMILKSDGSYTRGTGVPDRFSGSSSGADRYLIISSVQADDEADYYCGADDSGGYVFGGGTQLTVTG | 0.007 | 0.007 | 0.007 | 0.007 | 0.006 | 1.64 | 0.007 | 0.007 | 0.007
3 | Antibody MM11 (antibody, mouse IgG1, kappa, V domains shown, Mouse monoclonal antibody from hybridoma; also called Nectin-4 mouse monoclonal antibody MM11; mouse antibody MM11) VH: DVQLQESGPGLVKPSQSLSLTCSVTGYSITSNFYWNWIRQFPGNRLEWMGYISYDGSNNYNPSLKNRISISRDTSKNQFFLKLNSVTTEDTATYYCVRADYWGQGTLVTVSA VL: DTVMTQTPLSLPVSLGDQASISCRSSQSLESSDGHAYLNWYLQKPGQSPQLLIYRVSNRFSGVLHRFSGSGSGTDFTLKISRVEAEDLGVYFCLQFTHVPFTFGSGTKLEIKR | 0.007 | 0.031 | 0.014 | 0.01 | 0.008 | 2.05 | 0.029 | 0.008 | 0.008
